{"source": "patent US20120014945A1", "about": "(ACADEMIA SINICA, published 2012)", "molecules": {"B1": {"name": "DB25-2 (antibody, V domains shown)", "VH": "QVQLKESGPGLVQPSQSLSITCTVSGFSLTDYGVHWIRQSPGKGLEWLGVIWRGGITDYNAAFMSRLSITKDNSKSQVFFKMDSLQPDDSAIYYCAKNFGTHYYGSNYGNFDYWGQGTTLTVSS", "VL": "VVMTQTPKFLLVSAGDRVTITCKASQSVSNDVAWYQQKPGQSPKLLIYYVSNRYSGVPDRFTGSGYGTDFTFTINTVQAEDLAVYFCQQDYSSPYTFGGGTKLEIK"}}, "key": {"[1]": {"target": "DENV-2 (16681) envelope (E) protein (dengue virus type 2 (DENV-2 16681)) (UniProt P29990)", "assay": "cell-based or functional assay"}, "[2]": {"target": "T1, DENV-3 (H87) envelope (E) protein (dengue virus type 3 (DENV-3 H87), UniProt P27915 281-773)", "T1 construct": "whole, on cells", "assay": "ELISA on DENV-3-infected C6/36 cells"}, "[3]": {"target": "T2, DENV-4 (H241) envelope (E) protein (dengue virus type 4 (DENV-4 H241), UniProt Q58HT7 280-774)", "T2 construct": "whole, on cells", "T2 sequence (Q58HT7 280-774)": "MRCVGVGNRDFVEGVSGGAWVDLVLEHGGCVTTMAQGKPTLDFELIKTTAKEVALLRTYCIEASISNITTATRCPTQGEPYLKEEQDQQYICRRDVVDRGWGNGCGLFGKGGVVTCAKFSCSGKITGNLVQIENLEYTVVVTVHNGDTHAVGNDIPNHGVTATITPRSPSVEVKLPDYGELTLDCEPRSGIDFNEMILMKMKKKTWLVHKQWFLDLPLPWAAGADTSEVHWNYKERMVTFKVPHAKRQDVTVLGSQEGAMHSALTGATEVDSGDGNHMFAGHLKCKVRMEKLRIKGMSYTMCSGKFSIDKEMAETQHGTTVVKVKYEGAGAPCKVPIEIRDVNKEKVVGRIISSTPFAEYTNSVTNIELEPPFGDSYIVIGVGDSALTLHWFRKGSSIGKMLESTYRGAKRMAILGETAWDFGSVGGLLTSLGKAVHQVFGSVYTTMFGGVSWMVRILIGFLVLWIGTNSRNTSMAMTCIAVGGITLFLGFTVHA", "assay": "ELISA on DENV-4-infected C6/36 cells"}}}
{"molecule": "3H5 (antibody)", "values": [{"measurement": "PRNT50 (µg/ml), D2", "setting": "[1]", "value": "< 0.41", "unit": "µg/mL"}, {"measurement": "concentration of complete inhibition of viral infection (PRNT)", "setting": "[1]", "value": 11, "unit": "µg/mL"}]}
{"molecule": "4G2 (antibody)", "values": [{"measurement": "PRNT50 (µg/ml), D2", "setting": "[1]", "value": "< 11", "unit": "µg/mL"}]}
{"molecule": "normal mouse IgG (antibody)", "values": [{"measurement": "neutralizing activity (PRNT)", "setting": "[1]", "value": "> 100", "unit": "µg/mL"}]}
{"molecule": "B1", "values": [{"measurement": "binding result", "setting": "[2]", "value": "no binding (tested: A490 < 0.2 (MAb at 1 µg/ml))"}, {"measurement": "binding result", "setting": "[3]", "value": "no binding (tested: A490 < 0.2 (MAb at 1 µg/ml))"}]}
